Experimental findings from the supplement of paper PMC12042874 are described below.

The data set in a line: amyloid nucleation score (Sup35N fusion, yeast selection) (log enrichment); library NNK2; higher = more nucleation; inactive = no reads after selection. The method in brief:
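The nucleation score, computed with DiMSum, is the log enrichment of output over input reads, centred on the mode score of non-aggregating sequences. Sequences with under 100 input reads were dropped. Reads were generated by Illumina sequencing of plasmid inserts from psi-negative yeast with Sup35N fused to peptides of 20 random codons, induced with 100 μM copper sulfate for 24 hours and grown 7 days at 30°C on medium lacking adenine and uracil.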

± gives the uncertainty stated by the source.

As for EFFISVSLNWCKTDCYTDPW, the amyloid nucleation score is -0.407 ± 0.2. The value for ADSCKVMKWDRRPLEDFNWC was -0.041 ± 0.19. In the case of IEGYYGASRVRGMSMGLLWV, the amyloid nucleation score is -0.17 ± 0.79. Under YPGWPMKTVQ stands 3.97 ± 0.05; under GYLVRM, -0.186 ± 0.3. As for LVYVT, the amyloid nucleation score was 0.434 ± 0.37. Under WWFYAYVYWRW stands -0.403 ± 0.43; under RNWPVIVVWAKTGCQCSFLM, -0.544 ± 0.36; under PVGLY, -0.308 ± 0.42. Under LSSGLLSLFALKQCF stands -0.669 ± 0.54; under LDMGCNRPEVYGNKCAMVSW, 0.75 ± 0.21. The value for IWILELFKY was 4.07 ± 0.12.

On to AANDMPMNSPIFSLGSDMPH, for which the amyloid nucleation score came to 1.01 ± 0.48. Under VDETNAKL stands 0.785 ± 0.3; under MFNACDNRKFCVGVCSDLK, 0.036 ± 0.41; under VLFCMSYKSARLEL, 6.08 ± 0.07. Under FLLECSWFCVYTIGFYYRNI stands “inactive”; under KRDFPISATSRLCVAFFFIY, -0.975 ± 0.38; under DNWVLYNCFTTSEKLSM, 0.553 ± 0.19. The value for GLQSVDGLQNTYLGSNAVVD was 0.87 ± 0.26; that for TCCQDYLLIWYCMDSIRNVR was 9.611 ± 0.034. For PAYRYKHSNWKNPRQ, the amyloid nucleation score result was “inactive”. Under LMYSTFMYHRKHWLLALNQN stands 0.034 ± 1.1; under GRCYDFCHFYKQGRYSLGWV, -1.06 ± 0.63. Under AIKESRCDIVIRRKWSSLKT stands -0.02 ± 1.1; under RYIGMLRFVVCDYGLMIFWS, -0.394 ± 1.1; under HMMHSWAFL, 3.81 ± 0.047. ILSCVARGCYYTTL came in with an amyloid nucleation score of -1.38 ± 1.1. CCYVHWILGAGDREGRLWRQ came in with an amyloid nucleation score of 3.86 ± 0.13. The value for LGSCHAMRLIEDGSGMEWMF was 0.645 ± 0.37; that for DNLVCCSCSHLIVWTLSVGA was 9.548 ± 0.035; that for QAFPDLTVVRACYMHLL was 0.54 ± 0.25. Under SNSKVSVLIFFSAHKGECAA stands “inactive”; under DSDHIYNRERQVIFGG, -0.607 ± 0.5. Under ENKPTRDLYSTTR stands -1.19 ± 0.54; under GELDGNRERILRRRGTMDYQ, 2.56 ± 0.091; under WLFDGGFSVKWPDRVSLARV, -1.14 ± 1.

LHNLAAGNSRLTSNLMFALA: the amyloid nucleation score result was “inactive”. In turn, CCKITDMAPNPVETWKYSKR had an amyloid nucleation score of 0.786 ± 0.27.

The substance HMDHARLEVLTVILLGVWGF showed an amyloid nucleation score of 5.11 ± 0.089.

KLGLVKMSPYIMFTHVCDGW came in with an amyloid nucleation score of -0.217 ± 0.23. As for MNYLCASSGVLVKN, the amyloid nucleation score was -0.055 ± 1.1. Under QNCQFGMH stands 0.88 ± 0.48; under WHMSWLK, 0.114 ± 0.63. The value for VWDLMLKKAFTNSSNCYSVA was 1.19 ± 0.19; that for LLISSLLTSDLLGPSSSVMD was 1.51 ± 0.58; that for LLFMWTWVVVIGRKYANNYF was “inactive”. Under LYKSSQKKPQTLNDFQIAMW stands 0.193 ± 0.65; under TIGANPRVLDG, 0.316 ± 0.39. ISWAVKMHDIPV yielded an amyloid nucleation score of 0.97 ± 0.58. The value for HKRCVITLLWADL was 0.344 ± 0.41. LNVRLFSVFFSHTSSSHSEN showed an amyloid nucleation score of 3.21 ± 0.061. Substance ILGHLYLKIKKLSFVM displayed an amyloid nucleation score of -0.658 ± 1.

For the substance VRLEPSHRVCRRVRLTSILR, the amyloid nucleation score result is “inactive”. Under SISSGMVDVAGQLSCTRVSE stands 1.65 ± 0.32.

For TFLSHEGRGLRCLYYHMMPG, the amyloid nucleation score turned out to be 3.79 ± 0.14.

YVWSWVGQYCRVIAAHGIWW: the amyloid nucleation score came out at 0.79 ± 0.26. Under SSATFYT stands 1.43 ± 0.26; under LSNCNRMLAGQGGGSRSDWR, 0.907 ± 0.37. YGHFWDFGVPIASSISYKKG came in with an amyloid nucleation score of -0.029 ± 0.79.

For the substance SMTCRDLFSWYGSWYQSILF, the amyloid nucleation score was determined as 0.874 ± 0.47. On to CRIQPDFRFMCLRNCGLESR, for which the amyloid nucleation score was -0.855 ± 1.

In the case of RGSGKCYRAGFMIAIVTHPL, the amyloid nucleation score turned out to be 1.5 ± 0.41.

In the case of APANVRWLNFSGLDSNGCPY, the amyloid nucleation score entry was “inactive”. As to MSGWVAGLHLDVCGVDYAGG, the amyloid nucleation score turned out to be 1.9 ± 0.29. The value for SLFAVQTVVEVVVHV was 0.762 ± 0.41; that for TTRSNEKIVFHGWTSVINRH was -0.696 ± 0.76; that for LADTLVSESKYKWLF was -0.032 ± 1.1. The value for EALKVWERLCRLCSFWSYRK was 7.871 ± 0.039; that for LDCIS was -0.647 ± 0.55.

Substance CRWDFVLWRFLCSIKKDWVT returned an amyloid nucleation score of -0.386 ± 0.79.

As for VLVIGSIVYVCLSKDCCFNV, the amyloid nucleation score turned out to be 9.543 ± 0.04. YEVHDDLYYTNKLRTRANGV came in with an amyloid nucleation score of 1.46 ± 0.43. Under NDSCELLCESITYTAWFSGQ stands 3.22 ± 0.12.

In turn, RSVSGMVWE gave an amyloid nucleation score of 0.21 ± 0.74. Under VNMLEQKGRMSDETPCTATP stands 0.107 ± 0.79; under RPNSSIVLLYPFKMRPFES, “inactive”; under CRLFQSQIYERYTSRCVYRF, -1.05 ± 0.79. In turn, QVGKQADFRVAWLRVIHVF gave an amyloid nucleation score of 0.292 ± 0.56. Under QIHGVTFFSQRTGTCASEP stands -0.875 ± 0.44; under LRYRDASEALSYLCMQYDVI, 2.94 ± 0.05; under VRDNHNRSGQVRGGADLN, 0.822 ± 0.34. Substance KVEALDVTRGIVPGKSLAVR showed an amyloid nucleation score of 0.249 ± 0.55.

Take VNIVVILFIVADIKWRRF: the amyloid nucleation score stood at 3.15 ± 0.12. As for KWNVFGDDGMREARLNLSGV, the amyloid nucleation score is -0.69 ± 0.74. Consider TNPASAGTYSRSYEFCSLRL, for which the amyloid nucleation score came to 1.59 ± 0.18.

LAGITWISSTVRDVSYMRRR: the amyloid nucleation score stood at 2.72 ± 0.1.

FPNKITVIPSHTSRDNVNTL had an amyloid nucleation score of 0.261 ± 0.49. As to LQCGRIV, the amyloid nucleation score is -0.204 ± 0.79. Substance LCNAKAS yielded an amyloid nucleation score of -0.815 ± 0.64.

With NNWVAAHSLS, the amyloid nucleation score result is “inactive”. The value for KLRIVMMNRIFTSNL was 5.16 ± 0.1. SRSCVKH showed an amyloid nucleation score of -1.27 ± 0.55. Under IFNKYLVIFSIFI stands 6.747 ± 0.037. The value for CSNADFDSRVFTDANMIFPK was 4.01 ± 0.098.

With MILNQMYDKFYSRLSSITSR, the amyloid nucleation score was determined as 1.31 ± 0.66. The value for LSDYLPISSWFSLCTEFLAT was -1.02 ± 1.1; that for NCYGVVYSLCNMEVLSMWHE was 7.723 ± 0.036. Take TCLSQQCTEIEWIKFTPMSR: the amyloid nucleation score was found to be 4.31 ± 0.056.

The substance HNTAMGLELVPQKKNGVK returned an amyloid nucleation score of -0.06 ± 1. Under WTRCPQSRYHVLVRVYSYWA stands 0.193 ± 0.27.

In turn, WSYQYRLPILTTFSDFVWRK had an amyloid nucleation score of -0.339 ± 0.28. The value for IVLCWLEGG was 0.516 ± 0.31; that for LRVHESAGSNLVVWIKIVLE was 3.42 ± 0.14; that for VNLMVYASVIIGCAVARS was 7.06 ± 0.045. For KGGNIHSRVTYR, the amyloid nucleation score was -0.669 ± 0.37. Regarding WHGTDHKIVGQDIVVVYSAV, the amyloid nucleation score was 0.491 ± 0.6. Substance KFSLDF came in with an amyloid nucleation score of -0.837 ± 0.53. SHTSCGMKVSLRICHSMGQR displayed an amyloid nucleation score of 6.434 ± 0.057. Under LWITVRATPRLDRS stands 1.03 ± 0.21; under IINSDLMCLVNLFVNDSMRG, 8.093 ± 0.059; under YCSLLL, 4.79 ± 0.074.

TADISLYLRHST: the amyloid nucleation score came to 6.442 ± 0.049.

The substance YLTEALPDRSRYRSTSVMCV registered an amyloid nucleation score of 1.86 ± 0.32.

With DNMSNYSGACLSNYL, the amyloid nucleation score was -0.292 ± 0.56.

Take LCKVCSMITVGSGSGSVYSQ: the amyloid nucleation score result was “inactive”.

SCYFLFGHDG registered an amyloid nucleation score of -0.517 ± 0.49. Under GRTYNVTEFLKSRTRWGSPL stands 1.19 ± 0.59; under KKAIFWWFWDHDSCL, “inactive”; under YKSDYSKLLCWKNYKFWLVC, -1.07 ± 0.37. Under SKGGCTEFIEKTWNLCSCLV stands -1.1 ± 0.78; under SCLTNGY, -0.154 ± 0.38; under GLGAWFEI, 0.485 ± 0.29. Under HKGYCVRIIT stands -0.335 ± 0.26; under YCHLVV, 2.04 ± 0.087; under SRFPGCSVSTGRHRTKVSSR, 0.177 ± 0.43. As for FKDWNKWY, the amyloid nucleation score entry was “inactive”. Substance DLKYLGLA showed an amyloid nucleation score of -0.535 ± 0.53. Take VMGIEMIFVVGLWQLEDVKG: the amyloid nucleation score worked out at 0.747 ± 0.23. ASVRENFYIGLCRKCYYHNP registered an amyloid nucleation score of 1.59 ± 0.16. As to LVKVHSISMLINSYLGEFCL, the amyloid nucleation score was 0.045 ± 0.79. Take TSSYTWGVEPDASRTILVDT: the amyloid nucleation score was 0.4 ± 0.32. Turning to CNGFVWLFSVGYFNNRFMWF, the amyloid nucleation score entry is “inactive”. On to IHICKQTCG, for which the amyloid nucleation score came to 0.812 ± 0.3.

In turn, IFGSLLNMIYMV returned an amyloid nucleation score of 2.5 ± 0.21. The value for IRWAQTFILLFVCSSARPTQ was 0.712 ± 0.36. The value for PSFFCKWKSLYPTVNVCVVN was -0.073 ± 0.49; that for SFVMYRNSGRVCGMRVASEW was 0.766 ± 0.22. For the substance HATSMCNWAVFIECFFFGKL, the amyloid nucleation score was found to be 5.39 ± 0.065. Under LNLKRLLLQLFSMPMPVFHV stands -0.023 ± 0.49.
